The assay deals with NLRC4 (mouse) (UniProt Q3UP24).

The substance “PrgJ (purified, histidine-tagged) (from UniProt P41785) (ligand)” had an IL-1β secretion (ELISA) by LPS-primed BMM one hour after protein transfection of 800 pg/mL.

“FliC (purified, histidine-tagged) (from UniProt P06179) (ligand)” yielded an IL-1β secretion (ELISA) by LPS-primed BMM one hour after protein transfection of 800 pg/mL.

The values are drawn from US20100322957A1.
